Patent US20230052312A1 (Genentech, published 2023)

Experiments:
[1] = biological target: T1, human PD-L1 (human, UniProt Q9NZQ7 19-290); test: flow cytometry on human blood cells (conclusion of Example 1)
T1 construct: whole, on cells; Endogenous PD-L1 on cells of human donors and patients; also called programmed death ligand 1

[2] = biological target: T1, human PD-L1; test: flow cytometry on stimulated human whole blood, with or without Atezolizumab
Protocol: A Live Dead Kit (Invitrogen) was brought to room temperature. The kit included a near-IR fluorescent reactive dye and DMSO. 1× Pharm Lyse was made by mixing 10 mL of 10× Pharm Lyse (BD Biosciences) in 90 mL distilled water. After surface staining the cells in the test tubes, the tubes were vortexed and 3 mL of 1× Pharm Lyse was added to each test tube. The test tubes were vortexed again to enhance lysis of the cells in the presence of Pharm Lyse. The test tubes were then incubated for 15 minutes at room temperature in the dark. Following incubation, the test tubes were centrifuged for 5 minutes at 300 RCF/1500 to 1600 RPM. After centrifugation, the supernatant was aspirated as much as possible without disturbing the cell pellet. The bottom of each test tube was then flicked to break the cell pellet before washing the cells in 3 mL phosphate-buffered saline (PBS). The test tubes were centrifuged once more for 5 minutes at 300 RCF/1500 to 1600 RPM. The supernatant was then aspirated as before without disturbing the cell pellet. The bottom of each test tube was flicked to break the cell pellet and 1 mL of PBS was added to each test tube. A test tube was selected to perform a cell count using the BioRad TC20 cell counter. If the cell count was above 2 million live cells per mL of PBS in the tube, the concentration was adjusted to be 1 million live cells per mL and diluted accordingly using PBS. […]

T1 sequence (Q9NZQ7 19-290): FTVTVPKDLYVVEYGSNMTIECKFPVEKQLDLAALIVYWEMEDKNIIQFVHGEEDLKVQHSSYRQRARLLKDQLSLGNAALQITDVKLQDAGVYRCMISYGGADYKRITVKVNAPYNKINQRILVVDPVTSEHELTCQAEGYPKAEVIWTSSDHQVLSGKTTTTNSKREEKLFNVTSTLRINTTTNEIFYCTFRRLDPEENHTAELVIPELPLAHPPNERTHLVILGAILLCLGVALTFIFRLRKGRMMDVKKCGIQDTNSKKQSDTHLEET

Binder	binding result [1]	binding result [2]
anti-PD-L1 14D3 antibody (antibody, V domains shown, also called clone 14D3; PD-L1 GNE) VH: QVQLQQSGPELVNPGASVKISCKASGYAFSTSWMNWVKQRPGKGLEWIGRIYPRDGDTYYNGKFKDKATLTADKSSNTAYMQLSSLTSEDSAVYFCTKNPGGYYFDYWGQGTTLTVSS VL: DIQMTQTTSSLSASLGDRVTINCRASQDIHTYLNWYQQKPDGTVKLLIFYTSRLHSGVPSRFSGSGSGTDYSLTISNLEQEDIATYFCQQVSSLPPWTFGGGTKVEIK	binds	–
anti-PD-L1 PE 14D3 (antibody, V domains shown, also called anti-PD-L1 14D3 antibody labeled with PE) VH: QVQLQQSGPELVNPGASVKISCKASGYAFSTSWMNWVKQRPGKGLEWIGRIYPRDGDTYYNGKFKDKATLTADKSSNTAYMQLSSLTSEDSAVYFCTKNPGGYYFDYWGQGTTLTVSS VL: DIQMTQTTSSLSASLGDRVTINCRASQDIHTYLNWYQQKPDGTVKLLIFYTSRLHSGVPSRFSGSGSGTDYSLTISNLEQEDIATYFCQQVSSLPPWTFGGGTKVEIK	–	binds
anti-PD-L1 AF647 14D3 (antibody, V domains shown, also called anti-PD-L1 14D3 antibody labeled with AF647) VH: QVQLQQSGPELVNPGASVKISCKASGYAFSTSWMNWVKQRPGKGLEWIGRIYPRDGDTYYNGKFKDKATLTADKSSNTAYMQLSSLTSEDSAVYFCTKNPGGYYFDYWGQGTTLTVSS VL: DIQMTQTTSSLSASLGDRVTINCRASQDIHTYLNWYQQKPDGTVKLLIFYTSRLHSGVPSRFSGSGSGTDYSLTISNLEQEDIATYFCQQVSSLPPWTFGGGTKVEIK	–	binds
